For experiment [1], the system named is androgen-responsive genes. The experiment in a line: Microarray gene expression profiling of LNCaP cells stably transfected with EBP1. Type of experiment: cell-based, human. Conditions: EPB1-overexpressing LNCaP cells vs controls. The procedure:
Microarray Analysis: First and second strand cDNA were synthesized from 5-15 μg of total RNA at Genome Explorations (Nashville, Tenn.) using the SuperScript Double-Stranded cDNA Synthesis Kit (Gibco Life Technologies, Gaithersburg, Md.) and an oligo-dT24-T7 (5′-GGCCAGTGAATTGTAATACGACTCACTATAGGGAGGCGG-3′) (SEQ ID NO: 3) primer according to the manufacturer's instructions. cRNA was synthesized labeled with biotinylated UTP and CTP by in vitro transcription using the T7 promoter-coupled, double-stranded cDNA as template and the T7 RNA Transcript Labeling Kit (ENZO Diagnostics Inc., Farmingdale, N.Y.). The fragmented cRNA was hybridized for U133A oligonucleotide arrays (Affymetrix, Santa Clara, Calif.) containing ˜33,000 full-length annotated genes, together with additional probe sets designed to represent EST sequences. The arrays were then stained with phycoerythrein-conjugated streptavidin (Molecular Probes, Eugene, Oreg.), and the fluorescence intensities were determined using a laser confocal scanner (Hewlett-Packard, Palo Alto, Calif.). The scanned images were analyzed using Microarray software (Affymetrix). Sample loading and variations in staining were standardized by scaling the average of the fluorescent intensities of all genes on an array to constant target intensity for all arrays used. The signal intensity for each gene was calculated as the average intensity difference, represented by [E(PM−MM)/(number of probe pairs)], where PM and MM denote perfect-match and mismatch probes. Data analysis was conducted using Microarray Suite 5.0 (Affymetrix) following user guidelines. Only genes with a minimum expression level of 500 were included in this analysis. […] AR-regulated genes include the Androgen Receptor (AR), PSA (kallikrein 3), Kallikrein 2, POV-1, TMPRSS2, and prostate-derived factor.
Ectopic expression of EPB1 downregulates androgen-regulated genes: Gene expression profiling of LNCaP cells stably transfected with EBP1 was used to determine the range of androgen-dependent genes affected by EPB1 overexpression. These cells overexpress EPB1 protein between two- and three-fold (Zhang et al., 2002, Repression of Androgen Receptor Mediated Transcription by the ErbB-3 Binding Protein EPB1, Oncogene, 21: 5609-5618). Changes in gene expression were measured using microarray analysis of 33,000 transcripts on the Affymetrix U133A chip. To compile a list of differentially regulated genes, only those genes that were activated or repressed at least 3-fold (p<0.05, 500 minimum expression units) were included. […] Forty-one genes were induced and 126 were repressed. Seventy-two of these genes have HUGO approved names. […] These include the Androgen Receptor (3.7 fold decrease), PSA (3.7 fold decrease) as previously reported (Zhang et al., 2002, Repression of Androgen Receptor Mediated Transcription by the ErbB-3 Binding Protein EPB1, Oncogene, 21: 5609-5618), Kallikrein 2 (3.2 fold decrease), POV-1 (5.0 fold decrease), TMPRSS2 (3.2 fold decrease), and prostate-derived factor (3.2 fold decrease). The Kallikrein 2 gene is regulated by AR, predominantly expressed in prostate tissue, secreted by LNCaP cells, and 78% homologous to PSA. […] The TMPRSS2 gene is androgen-regulated and also highly expressed in prostate and prostate cancer (Afar et al., 2001, Catalytic Cleavage of the Androgen-Regulated TMPRSS2 Protease Results in its Secretion by Prostate and Prostate Cancer Epithelia, Cancer Res., 61:1686-1692).

Another experiment deals with MCF-7 cells. The experiment is described as follows: HRG-induced MAPK and AKT phosphorylation in MCF-7 transfectants. Type of experiment: cell-based, human. The following applies: EBP1 overexpressing MCF-7 cells. As for the experimental part:
FIG. 11A-C. Ebp1 affects HRG-induced downstream signaling pathways. Serum starved MCF-7 vector control (CMV) or EBP1 transfected cells (Ebp1) cells were stimulated with HRG (20 ng/ml) for the indicated times. Cells lysates were blotted with antibodies to (A) phosphor MAPK and total MAPK or (B) phospho-Akt or total AKT. Data are representative of three experiments. […] Eight hours after transfection, cells were refed with media with 2% serum and the indicated concentrations of HRG. Growth was assessed by MTT assay 3 days later. Data are representative of two experiments.
2.5. Western blot analysis. Total cell extracts were prepared by direct lysis of cells with lysis buffer [50 mM Tris-HCl (pH 7.4), 1 mM EDTA, 250 mM NaCl, 1% Triton X-100, 0.5 mM DTT, and 1× Complete™ protease inhibitor]. Protein concentrations were measured using a detergent compatible kit (Bio-Rad). Proteins (30 lg per well) were resolved by SDS-PAGE, transferred to PVDF membranes, and immunoblotted as described. […] Images were quantified using IMAGE-J software (NIH). […] Relative cell numbers were determined 4 days later using a Promega Proliferation Reagent as per manufacturer's instructions with absorbance being read at 490 nm using a Dynex plate reader. […] Data were analyzed using a two-tailed Students t-test and a p <0.05 was deemed statistically significant. […]

B1: EBP1: ErbB3 binding protein (SEQ ID NO: 2), AR corepressor, here ectopically expressed in cancer cells by stable transfection of an expression plasmid (protein, listed as Homo sapiens)
chain: MSGEDEQQEQTIAEDLVVTKYKMGGDIANRVLRSLVEASSSGVSVLSLCEKGDAMIMEETGKIFKKEKEMKKGIAFPTSISVNNCVCHFSPLKSDQDYILKEGDLVKIDLGVHVDGFIANVAHTFVVDVAQGTQVTGRKADVIKAAHLCAEAALRLVKPGNQNTQVTEAWNKVAHSFNCTPIEGMLSHQLKQHVIDGEKTIIQNPTDQQKKDHEKAEFEVHEVYAVDVLVSSGEGKAKDAGQRTTIYKRDPSKQYGLKMKTSRAFFSEVERRFDAMPFTLRAFEDEKKARMGVVECAKHELLQPFNVLYEKEGEFVAQFKFTVLLMPNGPMRITSGPFEPDLYKSEMEVQDAELKALLQSSASRKTQKKKKKKASKTAENATSGETLEENEAGD
modifications: FLAG tag
Take B1: in experiment [1], the “Androgen Receptor expression, fold decrease” value is given as 3.7 fold; the “Kallikrein 2 expression, fold decrease” value is 3.2 fold; the “POV-1 expression, fold decrease” value stood at 5.0 fold; the “PSA expression, fold decrease” value worked out at 3.7 fold. In addition, in experiment [1], the “TMPRSS2 expression, fold decrease” value is recorded as 3.2 fold and the “prostate-derived factor expression, fold decrease” value is reported as 3.2 fold. Further, the “basal MAPK phosphorylation” value in the experiment with MCF-7 cells is recorded as “constitutively phosphorylated”.

(Values after US7838495B2, “Compositions and methods of use of EPB1, and ErbB3 binding protein” (University of Maryland, Baltimore, priority 2007, dated 2010).)
